This note sets out measurements from patent US10913773B2, “Bicyclic peptidyl inhibitor of tumor necrosis factor-alpha” (Ohio State Innovation Foundation, priority 2016, dated 2021).

In experiment [1] the target is T1, TNFα (Homo sapiens, UniProt P01375).
T1 construct: ybbR tag (13 aa) (N); made in house; host or cells: Escherichia coli
Kind of experiment: Fluorescence anisotropy (FA) binding of fluorescently labeled bicyclic peptides to TNFα. The conditions noted are these: for Kd: Table 5, residue 11 variants with Lys(FITC). As for the experimental part:
FITC-labeled bicyclic peptide (50 or 100 nM) were incubated with varying concentrations of TNFα (0-5 μM) in 30 mM HEPES, pH 7.4, 150 mM NaCl, and 2 mM magnesium acetate for 2 h. The FA values were measured on a Molecular Devices Spectramax M5 spectrofluorimeter, with excitation and emission wavelengths at 485 and 525 nm, respectively. Equilibrium dissociation constants (KD) were determined by plotting the FA values as a function of TNFα concentration and fitting the data to the following equation
[formula] where Y is the measured anisotropy at a given TNFα concentration x; L is the bicyclic peptide concentration; Qb/Qf is the correction fact for dye-protein interaction; Amax is the maximum anisotropy when all the peptides are bound to TNFα, while Amin is the minimum anisotropy. Competition experiments were performed by incubating 100 nM Asn-Asn-Asn-Lys(FITC)-labeled anticachexin C1 (Table 1), 2 μM of TNFα, and varying concentrations of unlabeled competitor peptide (0-20 μM) in the above buffer for 2 h. The FA values were plotted against the competitor peptide concentration to determine the IC50 values.
To identify residues significant for TNFα binding, each residue of anticachexin C1 (other than D-alanine at position-3, L-lysine at position-4, and L-2,3-diaminopropionic acid (Dap) at position-10) was individually replaced with an alanine (or D-alanine). To facilitate binding analysis by fluorescence anisotropy (FA), a tetrapeptide NNNK (SEQ ID NO: 1) was added to the C-terminus of each bicyclic peptide and the lysine side chain was labeled with fluorescein isothiocyanate (FITC) during solid-phase synthesis (Scheme 1). The three asparagine residues were added to improve the aqueous solubility of the bicyclic peptides. The bicyclic peptide was prepared by first synthesizing the full-length linear sequence on Rink amide resin using standard Fmoc/HBTU chemistry. The side chains of the two internal cyclization residues, L-lysine and Dap, were protected with monomethoxytrityl (Mmt) groups, whereas the C-terminal lysine was protected with an allyloxycarbonyl (Alloc) group. After removal of the N-terminal Fmoc group, a trimesic acid was coupled to the N-terminal amine using HBTU as the coupling agent. Next, the Mmt groups were selectively removed from the Lys and Dap side chains by 2% TFA and the peptide was cyclized by treatment with (benzotriazol-1-yloxy)tripyrrolidinophosphonium hexafluorophosphate (PyBOP). The Alloc group on the C-terminal lysine side chain was removed by treatment with Pd(PPh3)4 and the bicyclic peptide was selectively labeled at the C-terminal lysine by treating the resin with FITC. […] On the other hand, phenylglycine (Phg)-1 and glycine-7 play more minor roles in binding.

For experiment [2], the target named is T2, TNFα-TNFR1 interaction (Homo sapiens, UniProt P01375).
T2 construct: made in house; host or cells: Escherichia coli (TNFα)
As to the kind of experiment: ELISA inhibition of TNFα-TNFR1 interaction (immobilized biotinylated TNFα, TNFR1-HRP). Type of experiment: binding. As for the experimental part:
Inhibition of TNFα-TNRF1 interaction by ELISA was carried out as previously described (Lian, W.; et al., supra).
Because of its high-throughput capability, FA analysis had been used to generate all of the SAR data described above. […] To confirm the SAR data obtained by FA analysis, some of the compounds in Table 5 (as well as new compounds) were resynthesized without the Lys(FITC) label and employed a more sensitive ELISA-based assay to determine the IC50 values for inhibition of the TNFα-TNFR1 interaction. Briefly, biotinylated TNFα was immobilized onto a NeutrAvidin-coated surface. TNFR1 conjugated with horseradish peroxidase (HRP) (0.5 nM) was added along with different concentrations of a peptide inhibitor. After washing, the amount of bound TNFR1-HRP was quantitated by ELISA. […] In agreement with the FA results, either extension at the C-terminus of β-Ala with another amino acid (C1-67 to C1-70) or side-chain modification of β-Ala (C1-71 to C1-73) decreased TNFα binding.
For orientation: An ELISA detects its analyte on a solid surface through an enzyme-linked reagent.

For experiment [3], the target named is T3, Recombinant TNFα containing an N-terminal 13-aa ybbR tag (human, UniProt P01375 77-233, biotin at the ybbR tag in the ELISA assays).
T3 construct: Expressed in E. coli; Same construct used unlabelled (FA) and biotinylated on NeutrAvidin (ELISA); also called tumor necrosis factor-alpha; human TNFα; not shown: N-terminal 13-aa ybbR tag
T3 sequence (P01375 77-233): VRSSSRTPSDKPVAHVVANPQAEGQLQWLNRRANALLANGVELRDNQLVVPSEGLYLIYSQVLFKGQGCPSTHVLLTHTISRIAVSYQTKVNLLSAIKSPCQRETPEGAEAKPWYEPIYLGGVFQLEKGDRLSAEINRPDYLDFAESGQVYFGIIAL
As to the kind of experiment: FA, FITC-peptide + TNFα titration. As to the method: (§1) The FA values were measured on a Molecular Devices Spectramax M5 spectrofluorimeter, with excitation and emission wavelengths at 485 and 525 nm, respectively. Equilibrium dissociation constants (KD) were determined by plotting the FA values as a function of TNFα concentration and fitting the data to the following equation $$Y = \frac{\left(Amin + \left(Amax \times \frac{Q_b}{Q_f} - Amin\right)\left(\frac{(L+x+K_d) - \sqrt{((L+x+K_d)^2 - 4Lx)}}{2L}\right)\right)}{\left(1 + \left(\frac{Q_b}{Q_f} - 1\right)\left(\frac{(L+x+K_d) - \sqrt{((L+x+K_d)^2 - 4Lx)}}{2L}\right)\right)}$$
(§2) where Y is the measured anisotropy at a given TNFα concentration x; L is the bicyclic peptide concentration; Qb/Qf is the correction fact for dye-protein interaction; Amax is the maximum anisotropy when all the peptides are bound to TNFα, while $Amin$ is the minimum anisotropy. […] The FA values were plotted against the competitor peptide concentration to determine the IC$50$ values.

Experiment [4] addresses T3, Recombinant TNFα containing an …. As to the kind of experiment: FA; against C1. As to the method: as §1, §2

Starred links: 1 amine or outer side, 2 acyl side, 3 side chain; linkers in the order of their positions; H or OH if unused. Positions of bridges follow the written chain, without caps; N, C: chain ends. Non-standard residues stand in square brackets, D forms with d. Residues, ends and D or L forms follow the SMILES beside them. Groups on a side chain read outwards from the residue. Primed or numbered codes have the meaning given here. No end group written: not given here. *: point of attachment. Lys(5-FITC)NH2 = NC(=O)[C@H](CCCCNC(=S)Nc1ccc2c(c1)C(=O)OC21c2ccc(O)cc2Oc2cc(O)ccc21)N*; FITC(3) = fluorescein isothiocyanate (N6-fluorescein-thiocarbamoyl on Lys); FITC = O=C1OC2(c3ccc(O)cc3Oc3cc(O)ccc32)c2ccc(NC(=S)*)cc21; Trimesoyl = O=C(c1cc(C(=O)[*:2])cc(C(=O)[*:3])c1)[*:1]; trimesoyl″ = benzene-1,3,5-tricarbonyl scaffold; FITC′ = fluorescein isothiocyanate, on Lys NZ; Phg = N[C@H](C(=O)O)c1ccccc1; Nle = CCCC[C@H](N)C(=O)O; Dap = NC[C@H](N)C(=O)O; AEEA = NCCOCCOCC(=O)O; NHiPr = CC(C)N*

With `CCCC[C@@H]1NC(=O)c2cc3cc(c2)C(=O)NC[C@@H](C(=O)N[C@@H](CCCCNC(=S)Nc2ccc4c(c2)C(=O)OC42c4ccc(O)cc4Oc4cc(O)ccc42)C(N)=O)NC(=O)[C@H](Cc2c[nH]cn2)NC(=O)[C@@H](CCCCN)NC(=O)CNC(=O)[C@@H](Cc2ccccc2)NC(=O)[C@H](Cc2ccc(O)cc2)NC(=O)[C@H](CCCCNC3=O)NC(=O)[C@@H](C)NC(=O)[C@H](Cc2ccc(O)cc2)NC1=O` [Compound C1-5], in experiment [1] (relative to comparator analogue named in text), the “Increase of TNFα binding affinity (fold)” value is ~2 fold. Consider `CCCC[C@@H]1NC(=O)c2cc3cc(c2)C(=O)NC[C@@H](C(=O)Nc2cn(C)cc2C(=O)NCCOCCOCC(=O)N[C@@H](CCCCNC(=S)Nc2ccc4c(c2)C(=O)OC42c4ccc(O)cc4Oc4cc(O)ccc42)C(N)=O)NC(=O)[C@H](Cc2c[nH]cn2)NC(=O)[C@@H](CCCCN)NC(=O)CNC(=O)[C@@H](Cc2c[nH]cn2)NC(=O)[C@H](Cc2c[nH]c4ccccc24)NC(=O)[C@H](CCCCNC3=O)NC(=O)[C@@H](CO)NC(=O)[C@H](Cc2ccc(O)cc2)NC1=O` [Compound C1-65], for which, in experiment [1], the Kd was determined as 1900 ± 900 nM.

In the case of `CCCC[C@@H]1NC(=O)c2cc3cc(c2)C(=O)NC[C@@H](C(=O)N[C@@H](CCCCNC(=S)Nc2ccc4c(c2)C(=O)OC42c4ccc(O)cc4Oc4cc(O)ccc42)C(N)=O)NC(=O)[C@H](Cc2ccccc2)NC(=O)[C@@H](CCCCN)NC(=O)CNC(=O)[C@@H](Cc2c[nH]cn2)NC(=O)[C@H](Cc2c[nH]c4ccccc24)NC(=O)[C@H](CCCCNC3=O)NC(=O)[C@@H](CO)NC(=O)[C@H](Cc2ccc(O)cc2)NC1=O` [Compound C1-50] ([Nle]Y[dS]KW[dH]G[dK]F[Dap]K(FITC)-NH2; linker N-4-10 via Trimesoyl), the “Reduction of TNFα binding affinity (fold)” value in experiment [1] (His-9 replaced with Phe, relative to parent) was ~30 fold. Turning to `CCCC[C@@H]1NC(=O)c2cc3cc(c2)C(=O)NC[C@@H](C(=O)N2CCC[C@@H](C(=O)NCCOCCOCC(=O)N[C@@H](CCCCNC(=S)Nc4ccc5c(c4)C(=O)OC54c5ccc(O)cc5Oc5cc(O)ccc54)C(N)=O)C2)NC(=O)[C@H](Cc2c[nH]cn2)NC(=O)[C@@H](CCCCN)NC(=O)CNC(=O)[C@@H](Cc2c[nH]cn2)NC(=O)[C@H](Cc2c[nH]c4ccccc24)NC(=O)[C@H](CCCCNC3=O)NC(=O)[C@@H](CO)NC(=O)[C@H](Cc2ccc(O)cc2)NC1=O` [Compound C1-64], in experiment [1], the Kd worked out at 340 ± 230 nM. In experiment [1], `CCCC[C@@H]1NC(=O)c2cc3cc(c2)C(=O)NC[C@@H](C(=O)N[C@@H](CC(=O)NCCOCCOCC(=O)N[C@@H](CCCCNC(=S)Nc2ccc4c(c2)C(=O)OC42c4ccc(O)cc4Oc4cc(O)ccc42)C(N)=O)C(=O)NC(C)C)NC(=O)[C@H](Cc2c[nH]cn2)NC(=O)[C@@H](CCCCN)NC(=O)CNC(=O)[C@@H](Cc2c[nH]cn2)NC(=O)[C@H](Cc2c[nH]c4ccccc24)NC(=O)[C@H](CCCCNC3=O)NC(=O)[C@@H](CO)NC(=O)[C@H](Cc2ccc(O)cc2)NC1=O` [Compound C1-61] ([Nle]Y[dS]KW[dH]G[dK]H[Dap]D([AEEA-Lys(5-FITC)NH2])-NHiPr; linker N-4-10 via Trimesoyl) yielded a Kd of 420 ± 210 nM. In the case of `CCCC[C@@H]1NC(=O)c2cc3cc(c2)C(=O)NC[C@@H](C(=O)N[C@@H](CC(=O)NCCOCCOCC(=O)N[C@@H](CCCCNC(=S)Nc2ccc4c(c2)C(=O)OC42c4ccc(O)cc4Oc4cc(O)ccc42)C(N)=O)C(=O)NCC)NC(=O)[C@H](Cc2c[nH]cn2)NC(=O)[C@@H](CCCCN)NC(=O)CNC(=O)[C@@H](Cc2c[nH]cn2)NC(=O)[C@H](Cc2c[nH]c4ccccc24)NC(=O)[C@H](CCCCNC3=O)NC(=O)[C@@H](CO)NC(=O)[C@H](Cc2ccc(O)cc2)NC1=O` [Compound C1-60] ([Nle]Y[dS]KW[dH]G[dK]H[Dap]D([AEEA-Lys(5-FITC)NH2])-NHEt; linker N-4-10 via Trimesoyl), the affinity in experiment [1], expressed as Kd, was 380 ± 140 nM.

Take `CCCC[C@@H]1NC(=O)c2cc3cc(c2)C(=O)NC[C@@H](C(=O)N[C@H]2CCC[C@@H]2C(=O)NCCOCCOCC(=O)N[C@@H](CCCCNC(=S)Nc2ccc4c(c2)C(=O)OC42c4ccc(O)cc4Oc4cc(O)ccc42)C(N)=O)NC(=O)[C@H](Cc2c[nH]cn2)NC(=O)[C@@H](CCCCN)NC(=O)CNC(=O)[C@@H](Cc2c[nH]cn2)NC(=O)[C@H](Cc2c[nH]c4ccccc24)NC(=O)[C@H](CCCCNC3=O)NC(=O)[C@@H](CO)NC(=O)[C@H](Cc2ccc(O)cc2)NC1=O` [Compound C1-63]: in experiment [1], the Kd came to 160 ± 150 nM. `CC(=O)C[C@H](CCc1ccccc1)NC(=O)[C@@H](CC(N)=O)NC(=O)C(N)Cc1ccccc1F` (stereo partly drawn) [Compound C1-74-4]: in experiment [2] (inhibition of TNFα-TNFR1 interaction, unlabeled peptides), the IC50 was 30 nM. The “Improvement of IC50 over C1-74 (fold)” value in experiment [2] (relative to C1-74) is on record as ~2 fold. On to [Phg]Y[dA]KY[dF]G[dA]H[Dap]NNNK(FITC(3))-NH2 (linker N-4-10 via trimesoyl″) [Anticachexin C1 D-Lys8 → D-Ala, NNNK(FITC)-tagged], for which the Kd in experiment [3] turned out to be 5.9 µM. In experiment [4], the “Fold of Affinity Reduction” value worked out at 7 fold.

Regarding [Phg]Y[dA]KY[dF]G[dK]A[Dap]NNNK(FITC(3))-NH2 (linker N-4-10 via trimesoyl″) [Anticachexin C1 His9 → Ala, NNNK(FITC)-tagged], the Kd in experiment [3] came to 4.4 µM. Also, in experiment [4], the “Fold of Affinity Reduction” value amounted to 5 fold.

B1: Anticachexin C1 Tyr5 → Ala, NNNK(FITC)-tagged (peptide)
peptide: [Phg]Y[dA]KA[dF]G[dK]H[Dap]NNNK(FITC′)-NH2
modifications: bridge (positions not given here) via trimesoyl″; not fully specified (N-terminus, bridges); also: feature: K4 labeled with FITC
For the molecule B1, the dissociation constant Kd in experiment [3] was found to be 11 µM. In experiment [4], the “Fold of Affinity Reduction” value turned out to be 12 fold.

Take [Phg]Y[dA]KY[dA]G[dK]H[Dap]NNNK(FITC(3))-NH2 (linker N-4-10 via trimesoyl″) [Anticachexin C1 D-Phe6 → D-Ala, NNNK(FITC)-tagged]: the Kd in experiment [3] came out at 3.4 µM. In experiment [4], the “Fold of Affinity Reduction” value turned out to be 4 fold.

B2: Anticachexin C1 Tyr2 → Ala, NNNK(FITC)-tagged (peptide)
peptide: [Phg]A[dA]KY[dF]G[dK]H[Dap]NNNK(FITC′)-NH2
modifications: bridge (positions not given here) via trimesoyl″; not fully specified (N-terminus, bridges); also: feature: K4 labeled with FITC
Take B2: the Kd in experiment [3] is 13 µM. The “Fold of Affinity Reduction” value in experiment [4] was 14 fold. [Phg]Y[dA]KY[dF]A[dK]H[Dap]NNNK(FITC(3))-NH2 (linker N-4-10 via trimesoyl″) [Anticachexin C1 Gly7 → Ala, NNNK(FITC)-tagged]: the Kd in experiment [3] came to 1.2 µM. In addition, the “Fold of Affinity Reduction” value in experiment [4] is 1.5 fold.

One may read the Kd as a measure of binding affinity in units of concentration. Usually IC50 stands for the concentration that inhibits the measured activity by half.
